Source: patent US20250122303A1 (HUMMINGBIRD BIOSCIENCE PTE, published 2025)
Each block holds one binder with its values, some of them ahead of it.

Legend:
His-tagged human HER3 [1] = molecular target: T1, His-tagged human HER3 (human, UniProt P21860 20-643); test: BLI (Octet QK384), antibody on anti-human IgG capture tips, His-tagged human HER3 in solution, global one-site fit
T1 construct: Antigen of the BLI experiments and of the HER2-Fc dimerisation ELISA; also called HER3 His; not shown: His tag
Outline: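 Anti-HER3 IgG1 antibodies (25 nM) were captured on anti-human IgG sensor tips and binding to human HER3 was measured at 25° C with agitation at 1000 rpm.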

His-tagged human HER3 [2] = molecular target: T1, His-tagged human HER3; test: BLI (Octet QK384), antibody on anti-human IgG capture tips, His-tagged human HER3 35-278 nM, global 1:1 fit
Experimental: (§1) The anti-HER3 antibody clones in IgG1 format were analysed for binding affinity to human HER3. Bio-Layer Interferometry (BLI) experiments were performed using the Octet QK384 system (ForteBio). anti-Human IgG Capture (AHC) Octet sensor tips (Pall ForteBio, USA) were used to anti-HER3 antibodies (25 nM). All measurements were performed at 25° C. with agitation at 1000 rpm. […] Sensograms were referenced for buffer effects and then fitted using the Octet QK384 user software (Pall ForteBio, USA). Kinetic responses were subjected to a global fitting using a one site binding model to obtain values for association (Kₒₙ), dissociation (Koff) rate constants and the equilibrium dissociation constant (KD). Only curves that could be reliably fitted with the software (R²>0.90) were included in the analysis.

His-tagged human HER3 [3] = molecular target: T1, His-tagged human HER3; test: BLI (Octet QK384), antibody on anti-human IgG capture tips, His-tagged human HER3 in solution, global 1:1 fit, R^2 = 0.9955, kon Error 5.62E+03; Response -0.0012 / 0.1507 / 0.3396 / 0.4384 at 35 / 69 / 139 / 278 nM
Experimental: as §1

His-tagged human HER3 [4] = molecular target: T1, His-tagged human HER3; test: BLI (Octet QK384), antibody on anti-human IgG capture tips, His-tagged human HER3 35-278 nM, global 1:1 fit; kdis Error 1.17E-04
Experimental: as §1

His-tagged human HER3 [5] = molecular target: T1, His-tagged human HER3; test: BLI (Octet QK384), antibody on anti-human IgG capture tips, His-tagged human HER3 in solution, global 1:1 fit, R^2 = 0.9949, kon Error 6.34E+03; Response 0.0096 / 0.1318 / 0.3036 / 0.3995 at 35 / 69 / 139 / 278 nM
Experimental: as §1

His-tagged human HER3 [6] = molecular target: T1, His-tagged human HER3; test: BLI (Octet QK384), antibody on anti-human IgG capture tips, His-tagged human HER3 in solution, global 1:1 fit, R^2 = 0.9957, kon Error 3.75E+03; Response 0.0006 / 0.0697 / 0.1929 / 0.3524 at 35 / 69 / 139 / 278 nM
Experimental: as §1

His-tagged human HER3 [7] = molecular target: T1, His-tagged human HER3; test: BLI (Octet QK384), antibody on anti-human IgG capture tips, His-tagged human HER3 35-278 nM, global 1:1 fit; kdis Error 1.27E-04
Experimental: as §1

[8] = molecular target: T2, His-tagged FcγRIIIa (V158) (human, UniProt P08637 17-208); test: BLI (Octet QK384), His-tagged FcgRIIIa (V158) on anti-Penta-HIS tips, antibody 500 nM to 15.6 nM in solution, global 1:1 fit
T2 construct: not shown: His tag
Experimental: All measurements were performed at 25° C. with agitation at 1000 rpm. […] Sensograms were referenced for buffer effects and then fitted using the Octet QK384 user software (Pall ForteBio, USA). Kinetic responses were subjected to a global fitting using a one site binding model to obtain values for association (Kₒₙ), dissociation (Koff) rate constants and the equilibrium dissociation constant (KD). Only curves that could be reliably fitted with the software (R²>0.90) were included in the analysis.

B1: anti-HER3 clone 10D1_c75 IgG1 (antibody, V domains shown)
VH: DVQLQEWGAGLLKPSETLSLTCAVTGYSITSGYSWHWIRQFPGNGLEWIGSIHYSGGTNYNPTLKSRITISRDTSKNQFSLKLSSVTAADTAVYFCARMTTAPRYPFDYWGQGTLVTVSS
VL: DIVMTQSPSSLSASVGDLVTITCKASQIVGSNVAWYQMKPGKSPKPLIYSASYLYFGVPSRFSGSGSGTDFTLTISSLQPEDVAEYFCQQYSSHPLTFGPGTKVEIKR
notes: Humanised 10D1 variant, IgG1/kappa
- Kd (His-tagged human HER3 [1]): < 0.001 nM
- koff (His-tagged human HER3 [2]): < 1e-07 s⁻¹
- kon (His-tagged human HER3 [3]): 163000 M⁻¹ s⁻¹

B2: anti-HER3 clone 10D1_c77 IgG1 (antibody, V domains shown)
VH: DVQLQEWGAGLLKPSETLSLTCAVTGYSITSGYSWHWIRQFPGNGLEWIGSIHYSGGTNYNPSLKSRITISRDTSKNQFSLKLSSVTAADTAVYFCARMTTAPRYPFDYWGQGTLVTVSS
VL: VIVMTQSPSSLSASVGDRVTITCKASQIVGPNVAWYQQKPGKSPKPLIYSASYGYSDVPSRFSGSGSGTDFTLTISSLQPEDVAEYFCQQYSTHPLTFGPGTKVEIKR
notes: as for B1
- Kd (His-tagged human HER3 [1]): 1.93 nM
- koff (His-tagged human HER3 [4]): 0.000346 s⁻¹
- kon (His-tagged human HER3 [5]): 179000 M⁻¹ s⁻¹

Other lines, results leading:

- Kd (His-tagged human HER3 [1]): 18.2 nM
- kon (His-tagged human HER3 [6]): 93600 M⁻¹ s⁻¹
- koff (His-tagged human HER3 [7]): 0.0017 s⁻¹
B3: anti-HER3 clone 10D1_c85o1 IgG1 (antibody, V domains shown)
VH: DVQLQEWGAGLLKPSETLSLTCAVTGYSITSGYSWHWIRQFPGKGLEWIGSIRYSGGTNYNPSLKSRITISRDTSKNQFSLKLGSVTAADTAVYFCARETTAPRYPFDYWGQGTLVTVSS
VL: DIVMTQSPSSLSASVGDRVTITCKASQIVGSNVAWYQQKPGKSPKPLIYSARYQYSGVPFRFSGSGSGTDFTLTISSLQPEDVATYYCQQYSSHPLTFGPGTKVEIKR
notes: Humanised 10D1 variant, IgG1/kappa; also called 10D1_c8501

- Kd [8]: 34 nM
B4: 10D1 comprising GASDALIE and LCKC substitutions in CH2 region (antibody, human IgG1, kappa)
heavy: DVQLQESGPDLVKPSQSLSLTCTVTGYSITSGYSWHWIRQFPGNKLEWMGSIHYSGGTNYNPSLKSRISITRDTSKNQFFLQLNSVTTEDTATYFCARMTTAPRYPFDYWGQGTTLTVSSASTKGPSVFPLAPSSKSTSGGTAALGCLVKDYFPEPVTVSWNSGALTSGVHTFPAVLQSSGLYSLSSVVTVPSSSLGTQTYICNVNHKPSNTKVDKKVEPKSCDKTHTCPPCPAPELLAGPDVFCFPPKPKDTLMISRTPEVTCVVVDVSHEDPEVKFNWYVDGVEVHNAKTKPREEQYNSTYRVVSVLTVLHQDWLNGKEYKCKVSNKALPLPEECTISKAKGQPREPQVYTLPPSRDELTKNQVSLTCLVKGFYPSDIAVEWESNGQPENNYKTTPPVLDSDGSFFLYSKLTVDKSRWQQGNVFSCSVMHEALHNHYTQKSLSLSPGK
light: DIVMTQSQKFMSTSVGDRVSVTCKASQIVGSNVAWYQQKPGQSPKPLIYSASYRYSGVPDRFTASGSGTDFTLTITNVQSEDLAEYFCQQYSSHPLTFGAGTKLELKRTVAAPSVFIFPPSDEQLKSGTASVVCLLNNFYPREAKVQWKVDNALQSGNSQESVTEQDSKDSTYSLSSTLTLSKADYEKHKVYACEVTHQGLSSPVTKSFNRGEC
notes: also called Fc engineered 10D1 variant
